The values below are quoted from earlier work in PMC5650668.

Where two headings read alike, the source gives them in different places.

The target of data set [1] is ω-agatoxin IVA (Agelenopsis aperta) (UniProt P30288).
The target is the same in data set [2]. The source holds these as a separate data set.

UniProt P30288, sequence (P30288 whole entry): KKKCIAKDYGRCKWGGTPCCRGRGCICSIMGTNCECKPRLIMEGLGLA

Consider “Cav2.1 (P current component) (from UniProt P54282)”, for which the Kd in data set [1] is 2 nM.
On to “Cav2.1 (Q current component) (from UniProt P54282)”, for which the Kd in data set [2] was more than 100 nM.
